Reference: the supplement of paper PMC9170038

Test system: MS2 coat protein
Test: apparent KD of MS2 coat protein; designed switch direction (-1 OFF switch, 1 ON switch): -1; higher = weaker reporter binding
Procedure, shortened: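 Designed RNA switches with common flanks were transcribed on Illumina chips by stalled E. coli RNA polymerase and titrated with SNAP-549-labelled MS2 coat protein, from 0.7 or 1.5 nM doubling to 3 µM, in Tris-HCl pH 7.5 buffer with KCl, MgCl2, BSA, DTT, tRNA and Tween-20. Steps lasted 0.8–1.5 h (lowest) to 10–20 min (highest). Titrations ran without input, with 200 uM small-molecule ligand, or with an oligonucleotide input. Normalised cluster fluorescence was curve-fitted, and apparent KD is the per-design median over clusters.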

[1] = input ligand: microRNA oligo, concentration not stated
[2] = Eterna round: R95, input ligand: FMN 200 uM
[3] = Eterna round: R95, input ligand: microRNA oligo, concentration not stated
[4] = Eterna round: R95, input ligand: none

Sequence	apparent KD of MS2 coat protein (input ligand: FMN 200 uM) [nM]	apparent KD of MS2 coat protein [1] [nM]	apparent KD of MS2 coat protein (input ligand: none) [nM]	apparent KD of MS2 coat protein [2] [nM]	apparent KD of MS2 coat protein [3] [nM]	apparent KD of MS2 coat protein [4] [nM]
GCACUCUGCUGGCAGUCGGCUUGUCUUAGAAGGAUAGAUACAUGAGGAUCACCCAUGUUUCGGGUGUCAAUUCUAGC [JR_Sensorv2_tov2_Sub1308] (Eterna round: R96, puzzle: Sensor v2, turn-off variant 2)	43.9	34.5	42.6	–	–	–
GCACUGACAGGAUAUACAUGAGGAUCACCCAUGUGACCCUUAUAGUACUCGCGUACAAGUAGAAGGGUCUGUGC [Omei Ex3 Model Bachelor's Dilema v31] (Eterna round: R97, puzzle: Exclusion 3)	382	–	107	–	–	–
GCACUGCGAGGAUAUACAUGAGGAUCACCCAUGUGUCCGCAGCGAUGCGAGUACAAAUGUAGAAGGCGCGUAAA [EX3 #57] (Eterna round: R97, puzzle: Exclusion 3)	34.1	–	14.3	–	–	–
GCAGAAAGUGUAGGAUAUAUAAUAAAGCGGAAACGCAAGACAUGAGGAUCACCCAUGUGUCCGGAAUAGAAGGGCAAAAGCUGC [EXNG2 V2 b] (Eterna round: R96, puzzle: Exclusion NG 2)	29.1	19.9	29.4	–	–	–
GCAGAUCAAGUGAGGAUAUGCUCUACCUCGGUAGAGCAGAAGGCACAUGAGGAUCACCCAUGUGAUUGAUCUGC [Omei Ex4B B5] (Eterna round: R97, puzzle: Brourd's mod of Exclusion 4)	26.9	–	19.5	–	–	–
GCAGCAAAUUCCACUAAAAUCACAUGAGGAUCACCCAUGUCUCAGGAUAUGGUCUGGAUUACAGGCCAGAAGGGAGAAAGCUGC [Eli exng3 - 057] (Eterna round: R96, puzzle: Exclusion NG 3)	25.8	23.6	27.6	–	–	–
GCAGCAACUCUAACUAACUAAACAUGAGGAUCACCCAUGUCUCAGGAUAUGGUCUGGAUUACAGGCCAGAAGGGAGAAAGCUGC [Eli exng3 - 039] (Eterna round: R96, puzzle: Exclusion NG 3)	12.6	10.9	14.5	–	–	–
GCAGCAACUCUAAUCAAACUAACAUGAGGAUCACCCAUGUCUCAGGAUAUGGUCUGGAUUACAGGCCAGAAGGGAGAAAGCUGC [Eli exng3 - 049] (Eterna round: R96, puzzle: Exclusion NG 3)	9.04	10.4	14.8	–	–	–
GCAGCAUAGAUGAAAGUCUGAUACAUGAGGAUCACCCAUGUACAGGAUAUGGUCUGGAUUACAGGCCAGAAGGGUACAAGCUGC [Eli exng3 - 013] (Eterna round: R96, puzzle: Exclusion NG 3)	14.4	10.6	12.8	–	–	–
GCAGCAUAGUGUAAUAAACACAUACAUGAGGAUCACCCAUGUGAGGAUAUGGACUGGAUUACAGUCCAGAAGGCACAAAGCUGC [Zipper Style 1] (Eterna round: R96, puzzle: Exclusion NG 3)	18.7	15.9	17.8	–	–	–
GCAGCAUAGUUAACAGACUGUUACAUGAGGAUCACCCAUGUACAGGAUAUGGUCUGGAUUACAGGCCAGAAGGGUACAAGCUGC [Eli exng3 - 019] (Eterna round: R96, puzzle: Exclusion NG 3)	10.1	8.94	11.6	–	–	–
GCAGCAUAGUUUACUAACUGUUACAUGAGGAUCACCCAUGUUCAGGAUAUGGUCUGGAUUACAGGCCAGAAGGGAACAAGCUGC [Eli exng3 - 026] (Eterna round: R96, puzzle: Exclusion NG 3)	7.64	8.42	11.3	–	–	–
GCAGCAUAGUUUACUAGCUGUUACAUGAGGAUCACCCAUGUUCAGGAUAUGGUCUGGAUUACAGGCCAGAAGGGAACAAGCUGC [Eli exng3 - 029] (Eterna round: R96, puzzle: Exclusion NG 3)	–	7.99	–	–	–	–
GCAGCAUAGUUUACUGACUGUUACAUGAGGAUCACCCAUGUUCAGGAUAUGGUCUGGAUUACAGGCCAGAAGGGAACAAGCUGC [Eli exng3 - 030] (Eterna round: R96, puzzle: Exclusion NG 3)	9.17	10.9	10.6	–	–	–
GCAGCGUAUGUAGGAUAUCGGUCAGUUUCUGAUCGAGAAGGACAUGAGGAUCACCCAUGUAAAUUACCGACUUUGUCGGGCUGC [JL ENG1 3.67] (Eterna round: R96, puzzle: Exclusion NG 1)	16.3	14.7	16.3	–	–	–
GCAGCUAAUCGAGGAUAUCAGCACGAUUAGUGCUGAGAAGGCGACAUGAGGAUCACCCAUGUGAUCAAUUAAUAUUAAUGCUGC [ENG1/11-A1] (Eterna round: R96, puzzle: Exclusion NG 1)	774	295	505	–	–	–
GCAGCUAAUCGAGGAUAUCAGCACGUUUAGUGCUGAGAAGGCGACAUGAGGAUCACCCAUGUGAUCAAUUAAUAUUAAUGCUGC [ENG1/11-A2] (Eterna round: R96, puzzle: Exclusion NG 1)	1270	344	659	–	–	–
GCAGCUUAGUUAACAGACUGUUACAUGAGGAUCACCCAUGUGCAGGAUAUGGUCUGGAUUACAGGCCAGAAGGGUACAAGCUGC [Eli exng3 - 016] (Eterna round: R96, puzzle: Exclusion NG 3)	12.8	9.37	14.2	–	–	–
GCAGGAUAAGUCAGGAUAUACCUAUGGAUACAUAGGUAGAAGGGACAUGAGGAUCACCCAUGUGCCUCACCUGC [Fiskers BMX 4 - 57] (puzzle: Brourd's mod of Exclusion 4)	–	–	–	48.7	16.6	16.1
GCAGGUUAAGUAAGGAUAUACCUCUGGAAACAGAGGUAGAAGGUACAUGAGGAUCACCCAUGUUUCUCUUUUGC [Mod of Eli 5 - Jieux - Brourd's mod of Exclusion 4] (Eterna round: R97, puzzle: Brourd's mod of Exclusion 4)	24.8	–	16	–	–	–
GCAGGUUAAGUCAGGAUAUACCUAUGGAUACAUAGGUAGAAGGGACAUGAGGAUCACCCAUGUGACUCGCCUGC [Fiskers BMX 4 - 61] (puzzle: Brourd's mod of Exclusion 4)	–	–	–	–	25.6	–
GCAUCCAAUGUGAGGAUAUACCUCUGGAUACAUAGGUAGAAGGCACAUGAGGAUCACCCAUGUCCUAAGGAUGC [Fiskers BMX 4 - 28] (puzzle: Brourd's mod of Exclusion 4)	–	–	–	–	75	–
GCAUCCAAUGUGAGGAUAUACCUCUGGAUACAUAGGUAGAAGGCACAUGAGGAUCACCCAUGUUCCUAGGAUGC [Fiskers BMX 4 - 31] (puzzle: Brourd's mod of Exclusion 4)	–	–	–	–	32.9	–
GCAUCGUGAGGAUAUACAUGAGGAUCACCCAUGUGGCGGAUCUACCAGCCAGCAAAAUGUAGAAGGCAUUGCUU [Eternabot (L2) Solution 19] (Eterna round: R97, puzzle: Exclusion 3)	123	–	142	–	–	–
GCAUCUCAUGUCAGGAUAUGCUGUACCUUGGUACAGCAGAAGGGACAUGAGGAUCACCCAUGUGCCUAAGAUGC [JL-BMX4-4.12] (Eterna round: R97, puzzle: Brourd's mod of Exclusion 4)	1270	–	254	–	–	–
GCAUCUCGCAAGGGUACCCACAUGAGGAUCACCCAUGUGAUGAUAAACAGGUUUCGUGCGUCCGUUUUAUCCACUUU [Eternabot (L2) Solution 18] (Eterna round: R97, puzzle: Sensor, turn-off variant 1)	737	–	865	–	–	–
GCAUGCUAUGUCAGGAUAUACCUCUGGAUACAUAGGUAGAAGGGACAUGAGGAUCACCCAUGUCCUAAACAUGC [Fiskers BMX 4 - 26] (puzzle: Brourd's mod of Exclusion 4)	–	–	–	–	11.4	–
GCAUGGAAAGUGAGGAUAUACCACUGGAUACAGUGGUAGAAGGCACAUGAGGAUCACCCAUGUUUCUACCAUGC [Fiskers BMX 4 - 40] (puzzle: Brourd's mod of Exclusion 4)	–	–	–	–	12.7	–
GCAUGGCGAGGAUAUACAUGAGGAUCACCCAUGUGAGAAGAAUAAGUGAGGAAGAAAAGUAGAAGGCGCUGUGG [Mat - Exclusion 3 - Mod of Salish D63] (puzzle: Exclusion 3)	–	–	–	128	51.5	85
